Measured values published in PMC8826823, “The Zinc Finger Transcription Factor BbCmr1 Regulates Conidium Maturation in Beauveria bassiana”.

What was measured:
BbBrlA = molecular target: T1, BbBrlA (Beauveria bassiana, UniProt J5JC27 1-370); assay: EMSA; shift lost with 200-fold unlabeled probe; LightShift Chemiluminescent EMSA kit, manufacturer's instructions; buffer, salt, pH and temperature not given; details: protein: recombinant; tags: GST; label: biotin; blunt
T1 sequence: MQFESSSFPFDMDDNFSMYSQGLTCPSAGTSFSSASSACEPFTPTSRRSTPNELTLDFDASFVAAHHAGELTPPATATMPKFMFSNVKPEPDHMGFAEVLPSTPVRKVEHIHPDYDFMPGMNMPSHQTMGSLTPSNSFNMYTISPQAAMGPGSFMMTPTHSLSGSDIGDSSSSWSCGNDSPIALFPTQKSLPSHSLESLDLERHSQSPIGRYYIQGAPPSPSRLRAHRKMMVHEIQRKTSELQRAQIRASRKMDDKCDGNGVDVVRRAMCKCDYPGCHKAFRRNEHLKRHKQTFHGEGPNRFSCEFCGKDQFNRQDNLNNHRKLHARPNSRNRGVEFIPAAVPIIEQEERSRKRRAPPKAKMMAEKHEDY

BbCmr1 = molecular target: T2, BbCmr1 (Beauveria bassiana, UniProt J4VZG7 1-764); assay: EMSA; 0.5-2 ug protein, 10 ng probe; concentration-dependent; complex decreased by 200-800-fold unlabeled probe; LightShift Chemiluminescent EMSA kit, manufacturer's instructions; buffer, salt, pH and temperature not given; details: protein: recombinant; tags: N-terminal GST (pGEX-6p); chain copies: 2; label: biotin; blunt
T2 sequence: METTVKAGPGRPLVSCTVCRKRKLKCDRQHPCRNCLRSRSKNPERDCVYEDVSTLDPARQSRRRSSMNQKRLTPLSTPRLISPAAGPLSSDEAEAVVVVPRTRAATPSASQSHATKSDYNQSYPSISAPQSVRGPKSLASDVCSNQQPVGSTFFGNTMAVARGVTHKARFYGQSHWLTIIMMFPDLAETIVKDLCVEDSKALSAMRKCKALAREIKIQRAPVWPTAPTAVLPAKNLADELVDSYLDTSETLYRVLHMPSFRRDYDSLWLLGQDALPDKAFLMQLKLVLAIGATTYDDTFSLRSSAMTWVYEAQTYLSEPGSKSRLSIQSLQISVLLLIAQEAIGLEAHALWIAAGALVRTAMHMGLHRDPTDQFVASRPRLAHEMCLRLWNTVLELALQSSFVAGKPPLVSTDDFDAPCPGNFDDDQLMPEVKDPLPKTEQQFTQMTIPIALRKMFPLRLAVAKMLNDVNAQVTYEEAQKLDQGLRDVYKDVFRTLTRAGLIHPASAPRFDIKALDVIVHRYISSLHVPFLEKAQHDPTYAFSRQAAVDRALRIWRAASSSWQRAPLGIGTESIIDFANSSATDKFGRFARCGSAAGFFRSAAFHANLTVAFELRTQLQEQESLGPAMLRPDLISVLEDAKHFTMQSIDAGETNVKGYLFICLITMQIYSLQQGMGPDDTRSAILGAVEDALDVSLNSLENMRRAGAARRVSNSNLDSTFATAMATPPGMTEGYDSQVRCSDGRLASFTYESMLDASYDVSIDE

B1: Bbcmr1 promoter probe (cmr1-EMSA) (dsDNA)
DNA 1: CGGAATTACGATATTACCCCTAGAGACAATTTTTATTATA
DNA 2: TATAATAAAAATTGTCTCTAGGGGTAATATCGTAATTCCG
binding result (BbBrlA): binds

B2: BbbrlA promoter probe (brlA-EMSA) (dsDNA)
DNA 1: GGAAAAAAAAAAAAGAAAAGGAACCCACAACTCAAGTCT
DNA 2: AGACTTGAGTTGTGGGTTCCTTTTCTTTTTTTTTTTTCC
binding result (BbCmr1): binds
